Measurements as given in patent publication US20230250188A1 (NATIONAL UNIVERSITY CORPORATION KOCHI UNIVERSITY, published 2023).

T1: human GPC1 on the surface of GPC1-positive cancer cells (TE8, TE14, BxPC-3) (human, UniProt P35052 24-530)
T1 sequence: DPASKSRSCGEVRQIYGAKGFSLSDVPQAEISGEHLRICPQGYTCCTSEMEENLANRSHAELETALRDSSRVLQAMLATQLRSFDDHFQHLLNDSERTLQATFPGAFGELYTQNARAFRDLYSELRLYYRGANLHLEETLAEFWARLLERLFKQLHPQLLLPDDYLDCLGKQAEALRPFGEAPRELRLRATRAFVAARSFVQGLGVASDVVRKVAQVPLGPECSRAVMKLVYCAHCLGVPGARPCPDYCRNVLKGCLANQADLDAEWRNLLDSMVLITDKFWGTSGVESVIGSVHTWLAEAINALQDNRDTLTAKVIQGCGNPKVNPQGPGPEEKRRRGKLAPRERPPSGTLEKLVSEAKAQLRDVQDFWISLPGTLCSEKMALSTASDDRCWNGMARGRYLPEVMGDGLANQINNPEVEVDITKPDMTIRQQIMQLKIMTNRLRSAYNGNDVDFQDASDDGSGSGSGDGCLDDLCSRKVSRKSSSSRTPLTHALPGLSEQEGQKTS

T2: recombinant human GPC1 protein (R&D Systems) (human, UniProt P35052 24-530)
T2 construct: Bought recombinant protein (R&D Systems); also called human GPC-1 antigen; Glypican-1
T2 sequence: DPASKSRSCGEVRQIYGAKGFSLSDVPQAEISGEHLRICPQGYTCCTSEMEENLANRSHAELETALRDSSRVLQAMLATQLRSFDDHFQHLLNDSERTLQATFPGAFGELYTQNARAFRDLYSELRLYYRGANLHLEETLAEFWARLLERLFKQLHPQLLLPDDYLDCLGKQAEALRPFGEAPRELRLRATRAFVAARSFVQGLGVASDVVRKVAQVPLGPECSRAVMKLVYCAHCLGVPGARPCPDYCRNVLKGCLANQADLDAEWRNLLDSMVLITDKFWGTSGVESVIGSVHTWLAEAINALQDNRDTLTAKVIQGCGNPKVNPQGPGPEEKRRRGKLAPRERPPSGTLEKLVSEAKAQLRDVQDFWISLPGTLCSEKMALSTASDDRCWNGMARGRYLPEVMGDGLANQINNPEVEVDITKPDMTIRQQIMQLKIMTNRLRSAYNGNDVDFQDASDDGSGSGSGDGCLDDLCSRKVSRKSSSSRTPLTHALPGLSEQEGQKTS


What was measured:
[1] = target: T1, human GPC1 on the surface of …; assay: cell-based or functional assay
[2] = target: T2, recombinant human GPC1 protein (R&D …); assay: SPR (Biacore 8K); antibody captured by anti-human IgG (Fc) on a CM5 chip, recombinant human GPC1 flowed over
Method: The mouse anti-human-GPC1 monoclonal antibody was humanized (subclass: IgG4), and the obtained twenty clones (T1, T2, T3, T7, T8, T10, T11, T22, T26, T28, T29, T31, T32, T33, T34, T36, T43, T56, T57, T59) were prepared. An anti-human IgG (Fc) was immobilized on an sCM5 sensor chip (GE Healthcare) using Human antibody capture kit (GE Healthcare), and the affinity of each of these clones to a recombinant human GPC1 protein (R&D Systems) was measured using Biacore (registered trademark) 8K (GE Healthcare).

| Binder | IC50 of cytotoxicity on TE14 cells (ATP cell viability, 144 h) with MMAF-linked anti-human-IgG Fab as secondary antibody [1] [nM] | Kd [2] [nM] | koff [2] [s⁻¹] | kon [2] [M⁻¹ s⁻¹] |
| --- | --- | --- | --- | --- |
| humanized anti-GPC1 monoclonal antibody clone T1 (antibody, human IgG4 S228P, kappa, V domains shown, IgG) VH: QVQLVQSGAEVKKPGASVKVSCKASGYTFTGYYMHWVRQAPGQGLEWMGEINPSTGDTTYNQKFKARVTMTRDTSTSTVYMELSSLRSEDTAVYYCAREKRDDGVFAYWGQGTLVTVSS VL: DIVMTQSPSFLSASVGDRVTITCRASQGISSYLVWYQQKPGKAPKLLIYSASVLQSGVPSRFSGRGYGTDFTLTISSLQPEDFATYYCQQSFSIPPVTFGGGTKVEIKR | 0.0399 | 5.62 | 0.00134 | 238000 |
| humanized anti-GPC1 monoclonal antibody clone T28 (antibody, human IgG4 S228P, kappa, V domains shown, IgG) VH: QVQLVQSGAEVKKPGASVKVSCKASGYTFTGYYMHWVRQAPGQGLEWMGEINPSTGDTTYNQKFKARVTMTRDTSTSTVYMELSSLRSEDTAVYYCAREKRDDGVFAYWGQGTLVTVSS VL: DIQMTQSPSSLSASLGEMVTITCRASESIHSYLNWYQQKPGKAPNLLIYDASNLESGVPSRFSGSGYGTDFTLTISSLQPEDFATYYCQQSYGPPITFGQGTRLEIKR | 0.153 | 21.7 | 0.00679 | 313000 |
| humanized anti-GPC1 monoclonal antibody clone T32 (antibody, human IgG4 S228P, kappa, V domains shown, IgG) VH: QVQLVQSGAEVKKPGASVKVSCKASGYTFTGYYMHWVRQAPGQGLEWMGEINPSTGDTTYNQKFKARVTMTRDTSTSTVYMELSSLRSEDTAVYYCAREKRDDGVFAYWGQGTLVTVSS VL: DVVMTQSPGTLSLSPGERATLSCSASQSVSSNLAWYQQKPGQAPRLLIYGTSSRATGVPARFSGSGSGTEFTLTISSLQSEDFAAYYCQQYNSWPLTFGGGTKVEIKR | 0.888 | 290 | 0.0603 | 208000 |
| humanized anti-GPC1 monoclonal antibody clone T3 (antibody, human IgG4 S228P, kappa, V domains shown, IgG) VH: QVQLVQSGAEVKKPGASVKVSCKASGYTFTGYYMHWVRQAPGQGLEWMGEINPSTGDTTYNQKFKARVTMTRDTSTSTVYMELSSLRSEDTAVYYCAREKRDDGVFAYWGQGTLVTVSS VL: DIVMTQSPSSVSASVGDRVSITCRASEHINGWLAWYQQIPGKAPRILISSASILQSGAPSRFSGSGFGTDFTLTISSVQPEDFATYYCQQAKSYPLTFGGGTKVEIKR | 0.0526 | 3.11 | 0.000713 | 229000 |
| humanized anti-GPC1 monoclonal antibody clone T31 (antibody, human IgG4 S228P, kappa, V domains shown, IgG) VH: QVQLVQSGAEVKKPGASVKVSCKASGYTFTGYYMHWVRQAPGQGLEWMGEINPSTGDTTYNQKFKARVTMTRDTSTSTVYMELSSLRSEDTAVYYCAREKRDDGVFAYWGQGTLVTVSS VL: AIQMTQSPATLSLSPGQRATLSCRASQSVSNYLAWYQQKPGQAPRLLIYDVSNRASGIPARFSGSGSGTDFTLTISSLEPEDFAIYYCQQRSNWPLTFGQGTKVDIKR | 0.688 | 271 | 0.0539 | 198000 |
| humanized anti-GPC1 monoclonal antibody clone T11 (antibody, human IgG4 S228P, kappa, V domains shown, IgG) VH: QVQLVQSGAEVKKPGASVKVSCKASGYTFTGYYMHWVRQAPGQGLEWMGEINPSTGDTTYNQKFKARVTMTRDTSTSTVYMELSSLRSEDTAVYYCAREKRDDGVFAYWGQGTLVTVSS VL: AIRMTQSPSSLSASVGDRVTITCRASRSISTYLHWYQQKAGKAPKLLIYSAYNLQSGVPSRFSGSGSGTDFTLTISSLQPEDFATYYCQQSYSTPYTFGQGTKVEIKR | 0.121 | 272 | 0.0506 | 186000 |
| humanized anti-GPC1 monoclonal antibody clone T7 (antibody, human IgG4 S228P, kappa, V domains shown, IgG) VH: QVQLVQSGAEVKKPGASVKVSCKASGYTFTGYYMHWVRQAPGQGLEWMGEINPSTGDTTYNQKFKARVTMTRDTSTSTVYMELSSLRSEDTAVYYCAREKRDDGVFAYWGQGTLVTVSS VL: AIQLTQSPSTLSASVGDRVTITCRASQSISSWLAWYQQKPGKAPKLLISDASNLASGVPLRFSGSGFGTHFTLTIDNLQPEDIATYSCQQYNNYPFTFGLGTKLEIKR | 0.0365 | 12 | 0.00411 | 343000 |
| humanized anti-GPC1 monoclonal antibody clone T59 (antibody, human IgG4 S228P, kappa, V domains shown, IgG) VH: QVQLVQSGAEVKKPGASVKVSCKASGYTFTGYYMHWVRQAPGQGLEWMGEINPSTGDTTYNQKFKARVTMTRDTSTSTVYMELSSLRSEDTAVYYCAREKRDDGVFAYWGQGTLVTVSS VL: EIVMTQSPSSLSASVGDRVTITCQASQHISNKLNWYQQKPGKAPKLLIYDASNLETGVPSRFSGSGYGTDFTFTVSSLQPEDIATYYCQQYDNLPITFGQGTRLEIKR | 0.37 | 302 | 0.0593 | 197000 |
| humanized anti-GPC1 monoclonal antibody clone T43 (antibody, human IgG4 S228P, kappa, V domains shown, IgG) VH: QVQLVQSGAEVKKPGASVKVSCKASGYTFTGYYMHWVRQAPGQGLEWMGEINPSTGDTTYNQKFKARVTMTRDTSTSTVYMELSSLRSEDTAVYYCAREKRDDGVFAYWGQGTLVTVSS VL: DIVMTQSPSSLSASVGDRVTITCRASQGIRSALAWYQQKPGKAPKLLIYDASNLQSGVPSRFSGSGSGTDFTLTISDVQAEDFGTYYCQQSFGPPRTFGQGTRLEIKR | 0.37 | 62.4 | 0.0106 | 169000 |
| humanized anti-GPC1 monoclonal antibody clone T26 (antibody, human IgG4 S228P, kappa, V domains shown) VH: QVQLVQSGAEVKKPGASVKVSCKASGYTFTGYYMHWVRQAPGQGLEWMGEINPSTGDTTYNQKFKARVTMTRDTSTSTVYMELSSLRSEDTAVYYCAREKRDDGVFAYWGQGTLVTVSS VL: DVVMTQSPSSLSASVGERVTITCRASQSISSYLNWYQQKPGKAPKLLIYAASSRATGIPHRYSGSGSGTVFTLTISRLEPEDFATYYCQQFHSYPITFGQGTRLEIKR | 0.803 |  |  |  |
| humanized anti-GPC1 monoclonal antibody clone T33 (antibody, human IgG4 S228P, kappa, V domains shown, IgG) VH: QVQLVQSGAEVKKPGASVKVSCKASGYTFTGYYMHWVRQAPGQGLEWMGEINPSTGDTTYNQKFKARVTMTRDTSTSTVYMELSSLRSEDTAVYYCAREKRDDGVFAYWGQGTLVTVSS VL: DVVMTQSPATLSVPPGDRATLSCRASQSVSSRLAWYQQKPGQAPKLLIYGASTRATGIPARFSGSWSGTEFTLTVSSLQSEDSAVYYCQQYNDWPRYTFGQGTKLEIKR | 1.86 | 462 | 0.0738 | 160000 |
| humanized anti-GPC1 monoclonal antibody clone T22 (antibody, human IgG4 S228P, kappa, V domains shown, IgG) VH: QVQLVQSGAEVKKPGASVKVSCKASGYTFTGYYMHWVRQAPGQGLEWMGEINPSTGDTTYNQKFKARVTMTRDTSTSTVYMELSSLRSEDTAVYYCAREKRDDGVFAYWGQGTLVTVSS VL: AIQMTQSPASLSASLGDRITITCRTSQTVAGYLNWYQQTPGNAPKLLIYSASNLQSGVPSRFSGSGSGRDFSLTISSLQSEDSATYYCQHSYSTPYTFGQGTKVEIKR | 0.745 | 218 | 0.0506 | 232000 |
| humanized anti-GPC1 monoclonal antibody clone T10 (antibody, human IgG4 S228P, kappa, V domains shown, IgG) VH: QVQLVQSGAEVKKPGASVKVSCKASGYTFTGYYMHWVRQAPGQGLEWMGEINPSTGDTTYNQKFKARVTMTRDTSTSTVYMELSSLRSEDTAVYYCAREKRDDGVFAYWGQGTLVTVSS VL: EIVLTQSPSTLSASVGDRVTITCRASQSISSWLAWYQQIPGKAPRILISSASILQSGAPSRFSGSGFGTDFTLTISSVQPEDFATYYCQQAKSYPLTFGGGTKLEIKR | 0.0488 | 7.55 | 0.0015 | 199000 |
| humanized anti-GPC1 monoclonal antibody clone T34 (antibody, human IgG4 S228P, kappa, V domains shown, IgG) VH: QVQLVQSGAEVKKPGASVKVSCKASGYTFTGYYMHWVRQAPGQGLEWMGEINPSTGDTTYNQKFKARVTMTRDTSTSTVYMELSSLRSEDTAVYYCAREKRDDGVFAYWGQGTLVTVSS VL: VIWMTQSPSSVSASVGDRVTITCRASQAINGWLAWYQQKPGKAPRILIYSASTLQTGAPSRFSGSGFGTDFTLTISSVQPEDFATYYCQQAKSYPLTFGGGTKVEIKR | 0.0501 | 22.8 | 0.00393 | 172000 |
